Test [1] relates to phosphorylated ERK in HEK293T cells. Description: ERK phosphorylation in serum-starved HEK293 cells (Western blotting). The test is classed as cell-based, human. How it is done:
(§1) The sample (20 μl) was loaded onto Mini-PROTEAN TGX Precast Gel 4-20% for experiments with <9 samples (4568094, Bio-Rad) or Criterion TGX Precast Gel 4-20% (5678094, Bio-Rad) for experiments with >9 samples. Gels were run in 1× Tris/Glycine/SDS buffer (1610732, Bio-Rad) at 150 V and stopped when the sample dye reached the end of the gel. Gels were removed and electrotransferred via a semi-dry cassette (1703940, Bio-Rad) in I× Tris/Glycine buffer (1610734, Bio-Rad) with 20% methanol. Gels were transferred onto polyvinylidene diflouride membranes (IPVH00010, Millipore) at 20 V for 1 hour. Membranes were then blocked in 5% dried milk with 0.5% Tween 20 diluted in Tris-buffered saline (TBST; pH 7.5) for 1 hour and probed with antibodies against specific antigens at 1:1000 in TBST with 5% dried milk. Blots were washed 3× for 5 minutes in TBST and probed with HRP-coupled secondary antibodies against specific species at 1:10,000 in TBST with 5% dried milk. Membranes were imaged on the SRX-101A X-ray film developer (Konica Minolta).
To determine the cellular activity of paracrine FGFs, the activation/phosphorylation of ERK in HEK293 cells after treatment was studied. HEK293 cells were seeded in 6-well plates in DMEM (26140079, Gibco) supplemented with I× Pen/Strep (15140122, Gibco) and 10% FBS (26140079, Gibco) and grown for 48 hours. Upon reaching 80% confluence, cells were serum starved overnight in DMEM and 1× Pen/Strep without FBS. The medium was changed, and cells were treated with sKL at 2 μg/ml or vehicle (sKL elution buffer: 25 mM Tris ph 8.0, 500 mM NaCl) for 15 minutes. Cells were then treated with various FGFs at 1.1 nM for 10 minutes. Cells were lysed in 200 μl of RIPA with the addition of a protease inhibitor (11836153001, Roche) and phosphatase inhibitors (P5726 and P0044, Sigma-Aldrich) for 30 minutes. The mixture was then centrifuged at 20,000 g for 60 minutes to remove all cell debris. One hundred microliters of 1× Laemmli sample buffer (1610737, Bio-Rad) with 1.42 M 2-mercaptoethanol was added, and samples were boiled for 5 minutes. Twenty microliters of samples was loaded onto 12% SDS-PAGE gels and analyzed using Western blotting for total and phosphorylated ERK.

The target of a further test is T1, FGF23 binding to FGFR3c (Homo sapiens, UniProt P22607+Q9GZV9).
T1 construct: Fc-coupled FGFR ectodomains were immobilized on protein A/G beads; purchased R&D Systems 2604FG025/CF or 2629FG025/CF; 766FR050
T1 sequence (Q9GZV9 25-251): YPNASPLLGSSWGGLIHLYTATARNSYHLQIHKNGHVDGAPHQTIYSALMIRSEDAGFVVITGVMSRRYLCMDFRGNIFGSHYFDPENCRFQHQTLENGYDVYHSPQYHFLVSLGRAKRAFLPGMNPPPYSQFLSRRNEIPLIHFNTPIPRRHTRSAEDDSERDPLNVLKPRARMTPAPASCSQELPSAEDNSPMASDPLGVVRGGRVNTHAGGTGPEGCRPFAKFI
T1 sequence (P22607 23-375 limits assumed): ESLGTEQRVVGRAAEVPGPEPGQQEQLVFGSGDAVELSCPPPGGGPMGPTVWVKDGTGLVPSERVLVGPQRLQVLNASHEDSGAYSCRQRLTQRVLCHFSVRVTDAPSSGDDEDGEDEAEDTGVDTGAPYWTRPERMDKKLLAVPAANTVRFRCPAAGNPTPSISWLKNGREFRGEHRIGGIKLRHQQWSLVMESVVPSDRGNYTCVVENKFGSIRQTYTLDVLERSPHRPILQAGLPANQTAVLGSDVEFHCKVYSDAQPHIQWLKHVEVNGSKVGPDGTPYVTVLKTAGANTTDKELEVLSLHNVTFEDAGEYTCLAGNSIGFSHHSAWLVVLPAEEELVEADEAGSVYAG
Description: Pull-down of FGF23 with Fc-FGFR on protein A/G beads with sKL, heparin or PBS. The settings on record: with heparin, or alone. How it is done:
(§2) To study the interaction between Fc-tagged FGFR isoforms (Fc-FGFR), FGF isoforms, and sKL, immunoprecipitation studies were conducted. Protein A beads (6501, BioVision) and protein G beads (6511, BioVision) were used at 25 μl of a 50% stock slurry per sample in a total bead volume of 50 μl. Beads were washed 5× in activity buffer (50 mM Tris [pH 7.4], 200 mM NaCl, 0.01% Tween 20). Bead spin-down assays were all performed for 2 minutes at 5000 g. Beads were resuspended in 1 ml of activity buffer in a 1.5-ml snap cap tube. One microgram of Fc-FGFR1 to 4 was incubated with the beads for 1 hour on a bead rotator. Control samples were incubated with 2 μg of anti-FGF antibody instead of Fc-FGFR. Beads were then pelleted at 5000 g for 2 minutes and washed 5× with activity buffer. Beads were resuspended and incubated with different combinations of 500 ng of FGF, 1 μg of sKL, 1.6 United States Pharmacopeia (USP) units of heparin, or phosphate-buffered saline (PBS). Beads were incubated for 1 hour on a tube rotator, and beads were pelleted and washed as before. One hundred microliters of 1× Laemmli sample buffer (1610737, Bio-Rad) with 1.42 M 2-mercaptoethanol was added, and samples were boiled for 5 minutes. Samples were analyzed using SDS-PAGE and Western blotting.
as §1

The target of another test is T2, FGF23 binding to FGFR4 (Homo sapiens, UniProt P22455+Q9GZV9).
T2 construct: Fc-coupled FGFR ectodomains were immobilized on protein A/G beads; purchased R&D Systems 2604FG025/CF or 2629FG025/CF; 685FR050
T2 sequence (Q9GZV9 25-251): T1 sequence (Q9GZV9 25-251)
T2 sequence (P22455 22-369 limits assumed): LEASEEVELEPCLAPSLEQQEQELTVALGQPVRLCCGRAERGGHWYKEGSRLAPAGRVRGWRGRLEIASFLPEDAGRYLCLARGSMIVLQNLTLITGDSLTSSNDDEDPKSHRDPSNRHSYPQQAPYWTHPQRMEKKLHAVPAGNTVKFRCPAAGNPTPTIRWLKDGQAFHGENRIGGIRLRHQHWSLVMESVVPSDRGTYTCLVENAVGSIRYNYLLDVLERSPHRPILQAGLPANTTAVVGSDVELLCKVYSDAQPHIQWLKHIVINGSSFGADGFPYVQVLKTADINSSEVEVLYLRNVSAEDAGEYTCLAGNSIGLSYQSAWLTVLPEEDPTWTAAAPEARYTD
Described as above. The conditions noted are these: with heparin, or alone. How it is done: as §2, §1

Entries after “also recorded” stand apart in the source; their conditions may differ.

B1: FGF23: recombinant fibroblast growth factor 23 protein from R&D Systems (protein)
chain: YPDTSPLLGSNWGSLTHLYTATARTSYHLQIHRDGHVDGTPHQTIYSALMITSEDAGSVVITGAMTRRFLCMDLHGNIFGSLHFSPENCKFRQWTLENGYDVYLSQKHHYLVSLGRAKRIFQPGTNPPPFSQFLARRNEVPLLHFYTVRPRRHTRSAEDPPERDPLNVLKPRPRATPVPVSCSRELPSAEEGGPAASDPLGVLRRGRGDARGGAGGADRCRPFPRFV
Regarding B1, the “ERK phosphorylation induced by FGF” value in test [1] (FGF 1.1 nM for 10 minutes, absence of sKL) is “had no effect”. For the same molecule, the “FGF23 co-precipitation with Fc-FGFR3c” value with FGF23 binding to FGFR3c is “no FGF23 binding was detected”. Further, in the test with FGF23 binding to FGFR4, the “FGF23 co-precipitation with Fc-FGFR4” value is “no FGF23 binding was detected”.

B2: sKL: recombinant soluble α-klotho ectodomain, mouse aa 35-982 and human aa 34-981, FLAG- or Strep/His-tagged, purified from HEK293 cells (protein)
chain: EPGDGAQTWARFSRPPAPEAAGLFQGTFPDGFLWAVGSAAYQTEGGWQQHGKGASIWDTFTHHPLAPPGDSRNASLPLGAPSPLQPATGDVASDSYNNVFRDTEALRELGVTHYRFSISWARVLPNGSAGVPNREGLRYYRRLLERLRELGVQPVVTLYHWDLPQRLQDAYGGWANRALADHFRDYAELCFRHFGGQVKYWITIDNPYVVAWHGYATGRLAPGIRGSPRLGYLVAHNLLLAHAKVWHLYNTSFRPTQGGQVSIALSSHWINPRRMTDHSIKECQKSLDFVLGWFAKPVFIDGDYPESMKNNLSSILPDFTESEKKFIKGTADFFALCFGPTLSFQLLDPHMKFRQLESPNLRQLLSWIDLEFNHPQIFIVENGWFVSGTTKRDDAKYMYYLKKFIMETLKAIKLDGVDVIGYTAWSLMDGFEWHRGYSIRRGLFYVDFLSQDKMLLPKSSALFYQKLIEKNGFPPLPENQPLEGTFPCDFAWGVVDNYIQVDTTLSQFTDLNVYLWDVHHSKRLIKVDGVVTKKRKSYCVDFAAIQPQIALLQEMHVTHFRFSLDWALILPLGNQSQVNHTILQYYRCMASELVRVNITPVVALWQPMAPNQGLPRLLARQGAWENPYTALAFAEYARLCFQELGHHVKLWITMNEPYTRNMTYSAGHNLLKAHALAWHVYNEKFRHAQNGKISIALQADWIEPACPFSQKDKEVAERVLEFDIGWLAEPIFGSGDYPWVMRDWLNQRNNFLLPYFTEDEKKLIQGTFDFLALSHYTTILVDSEKEDPIKYNDYLEVQEMTDITWLNSPSQVAVVPWGLRKVLNWLKFKYGDLPMYIISNGIDDGLHAEDDQLRVYYMQNYINEALKAHILDGINLCGYFAYSFNDRTAPRFGLYRYAADQFEPKASMKHYRKIIDSNGFPGPETLERFCPEEFTVCTECSFFHTRKS
modifications: left off: small tags and cut ends
notes: recombinant soluble α-klotho ectodomain, mouse aa 35-982 and human aa 34-981, FLAG- or Strep/His-tagged, purified from HEK293 cells
As to B2, the “phospho-ERK levels in cells treated with FGF2” value in test [1] (sKL 2 μg/ml 15 minutes before FGF2) was “decreased phospho-ERK levels; also recorded: did not occur”. Further, the “phospho-ERK levels in cells treated with FGF5” value in test [1] (sKL 2 μg/ml 15 minutes before FGF5) is given as “decreased phospho-ERK levels; also recorded: did not occur”. For the same molecule, the “ERK phosphorylation in cells incubated with FGF23” value in test [1] (sKL 2 μg/ml 15 minutes before FGF23) was “induced ERK phosphorylation; also recorded: increased pERK levels”. The “phospho-ERK levels in cells treated with FGF8b” value in test [1] (sKL 15 minutes before FGF8b) is on record as “did not occur”. The “FGF23 co-precipitation with Fc-FGFR3c” value in the test with FGF23 binding to FGFR3c was “could coprecipitate sKL and FGF23”. The “FGF23 co-precipitation with Fc-FGFR4” value with FGF23 binding to FGFR4 is “could coprecipitate sKL and FGF23”.
